The source of these data is US20160291016A1 (CHU SAINTE JUSTINE, published 2016).

A value given as a limit tells only on which side of the number the result lay.

For experiment [1], the target named is T1, integrin β1 (OPN receptor subunit) of mouse osteoblasts (mouse, UniProt P09055 21-798).
T1 construct: Only the subunit is named; also called β1 integrin
As to the kind of experiment: co-immunoprecipitation from mouse osteoblast lysates, Western blot. The text has this: (§1) Then, was examined whether the interaction of OPN with the receptor is influenced by PTPμ deficiency. […] In contrast, levels of CD44 in OPN immunoprecipitates were similar in WT and PTPμ^{-/-} osteoblasts.

Experiment [2] addresses T2, integrin α5 (OPN receptor subunit) of mouse osteoblasts (mouse, UniProt P11688 45-1053).
T2 construct: Only the subunit is named; also called α5 integrin
The experiment is described as above.
Text: as §1

T1 sequence (chain, as listed by the source limits assumed, chain 1 of 2): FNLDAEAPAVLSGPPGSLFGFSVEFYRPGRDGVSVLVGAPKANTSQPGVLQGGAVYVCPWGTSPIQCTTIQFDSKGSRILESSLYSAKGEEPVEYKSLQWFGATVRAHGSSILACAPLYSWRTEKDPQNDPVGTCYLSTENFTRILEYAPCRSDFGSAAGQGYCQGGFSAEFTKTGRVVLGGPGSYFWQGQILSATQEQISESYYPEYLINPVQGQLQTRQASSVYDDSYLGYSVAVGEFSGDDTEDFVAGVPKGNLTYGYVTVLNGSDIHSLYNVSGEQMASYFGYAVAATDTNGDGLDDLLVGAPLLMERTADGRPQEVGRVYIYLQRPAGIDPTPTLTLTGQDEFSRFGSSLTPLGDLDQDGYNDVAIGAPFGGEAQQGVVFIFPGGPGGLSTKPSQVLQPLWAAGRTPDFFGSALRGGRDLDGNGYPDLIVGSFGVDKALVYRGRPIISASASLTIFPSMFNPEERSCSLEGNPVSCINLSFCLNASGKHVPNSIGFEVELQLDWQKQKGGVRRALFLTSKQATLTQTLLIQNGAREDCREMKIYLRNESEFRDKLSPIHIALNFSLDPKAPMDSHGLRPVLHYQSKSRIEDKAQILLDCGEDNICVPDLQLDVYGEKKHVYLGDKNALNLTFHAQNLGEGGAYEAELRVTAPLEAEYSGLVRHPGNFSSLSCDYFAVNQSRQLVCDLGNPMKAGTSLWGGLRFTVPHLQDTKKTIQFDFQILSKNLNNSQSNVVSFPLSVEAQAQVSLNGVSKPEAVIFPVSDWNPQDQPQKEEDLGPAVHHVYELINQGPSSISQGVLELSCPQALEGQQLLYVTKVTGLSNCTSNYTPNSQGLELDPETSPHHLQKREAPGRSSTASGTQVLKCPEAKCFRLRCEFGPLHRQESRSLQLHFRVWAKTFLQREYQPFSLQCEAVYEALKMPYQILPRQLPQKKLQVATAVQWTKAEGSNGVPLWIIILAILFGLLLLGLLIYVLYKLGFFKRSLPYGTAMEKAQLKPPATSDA
T1 sequence (P09055 21-798 limits assumed, chain 2 of 2): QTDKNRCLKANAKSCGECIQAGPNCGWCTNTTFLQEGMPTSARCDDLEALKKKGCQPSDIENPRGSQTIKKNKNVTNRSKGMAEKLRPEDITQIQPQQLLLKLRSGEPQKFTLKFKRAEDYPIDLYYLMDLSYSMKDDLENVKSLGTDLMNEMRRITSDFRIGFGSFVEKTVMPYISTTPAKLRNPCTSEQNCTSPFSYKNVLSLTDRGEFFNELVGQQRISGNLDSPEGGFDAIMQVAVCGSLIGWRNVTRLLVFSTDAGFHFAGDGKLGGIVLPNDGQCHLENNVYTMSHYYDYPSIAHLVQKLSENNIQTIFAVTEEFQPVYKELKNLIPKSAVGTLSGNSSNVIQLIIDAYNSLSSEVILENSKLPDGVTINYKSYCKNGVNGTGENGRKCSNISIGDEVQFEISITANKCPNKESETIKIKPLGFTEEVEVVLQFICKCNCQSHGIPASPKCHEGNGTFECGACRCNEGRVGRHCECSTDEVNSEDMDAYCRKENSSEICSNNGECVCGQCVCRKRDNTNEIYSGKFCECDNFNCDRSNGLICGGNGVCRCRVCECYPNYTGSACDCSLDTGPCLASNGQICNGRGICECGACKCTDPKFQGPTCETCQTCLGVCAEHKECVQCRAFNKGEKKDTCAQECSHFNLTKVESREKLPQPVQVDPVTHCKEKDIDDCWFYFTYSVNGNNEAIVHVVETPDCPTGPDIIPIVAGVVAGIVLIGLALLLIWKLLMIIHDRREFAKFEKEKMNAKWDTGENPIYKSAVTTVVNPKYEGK
T2 sequence (P11688 45-1053 limits assumed, chain 1 of 2): as the sequence (chain, as listed by the source limits assumed, chain 1 of 2) above
T2 sequence (chain, as listed by the source limits assumed, chain 2 of 2): as the sequence (P09055 21-798 limits assumed, chain 2 of 2) above

B1: osteopontin (OPN), endogenous, in lysates of mouse osteoblasts (ligand)
chain: not shown
notes: Endogenous protein detected by Western blot with an anti-OPN antibody after immunoprecipitation of its receptors
On to B1, for which the “fold change of the level in the immunoprecipitates, PTPµ-/- osteoblasts against WT osteoblasts” value in experiment [1] and in experiment [2] was above 30 fold throughout.
